Values joined by “and” are separate entries in the source; they are usually repeats but may differ in a detail not shown here. Equal entries are not always repeated. Each block holds one substance with its values, some of them ahead of it.
Columns and labels:
[1] = target: H3K9me3 peptide, FITC-labeled; test: fluorescence polarisation; 0.5 nM FITC-labeled peptide, chromodomain serially diluted (wild types 200-0.2 µM; Cbx7.V1 and Cbx.VDs 50 µM-50 nM); 25 °C, 30 min; 25 mM HEPES pH 7.5, 150 mM NaCl, 1 mM DTT, 0.01% TritonX-100; one-site total binding model; values of single replicates
[2] = target: H3K9me3 peptide, N-terminal FITC; test: fluorescence polarisation; 0.5 nM FITC-labelled peptide; chromodomains 200-0.2 µM (wild type) or 50 µM-50 nM (Cbx7.V1 and all Cbx.VDs); 30 min at 25 °C; 25 mM HEPES pH 7.5, 150 mM NaCl, 1 mM DTT, 0.01% TritonX-100; one-site total binding model
[3] = target: H3K27me3 peptide, FITC-labeled; test: fluorescence polarisation; 0.5 nM FITC-labeled peptide, chromodomain serially diluted (wild types 200-0.2 µM; Cbx7.V1 and Cbx.VDs 50 µM-50 nM); 25 °C, 30 min; 25 mM HEPES pH 7.5, 150 mM NaCl, 1 mM DTT, 0.01% TritonX-100; one-site total binding model; values of single replicates
[4] = target: H3K27me3 peptide, N-terminal FITC; test: fluorescence polarisation; 0.5 nM FITC-labelled peptide; chromodomains 200-0.2 µM (wild type) or 50 µM-50 nM (Cbx7.V1 and all Cbx.VDs); 30 min at 25 °C; 25 mM HEPES pH 7.5, 150 mM NaCl, 1 mM DTT, 0.01% TritonX-100; one-site total binding model
[5] = target: Histone H3 H3K9me3 peptide (Homo sapiens) (UniProt P68431); settings: cited from earlier work
[6] = target: FITC-labeled H3K9me3 peptide; test: fluorescence polarisation; 0.5 nM FITC-labeled peptide, chromodomain serially diluted (wild type 200-0.2 µM; Cbx7.V1 50 µM-50 nM); 25 mM HEPES pH 7.5, 150 mM NaCl, 1 mM DTT, 0.01% TritonX-100; 30 min at 25 °C; one-site total binding model
[7] = target: H3K27 peptide (non-methylated), N-terminal biotin; test: phage ELISA; settings: read off a plot
[8] = target: H3K27me3 peptide, N-terminal biotin; test: phage ELISA; settings: read off a plot

- Kd [1]: 582 nM and 632 nM and 600 nM
Substance: Cbx1 chromodomain with the Asp9/Glu33 double substitution (from UniProt P83916 20-73) (domain or fragment)

- Kd [2]: 600 nM
Substance: Cbx1.VD chromodomain, Asp9/Glu33 (tags removed) (from UniProt P83916 20-73) (domain or fragment)

- Kd [3]: 2400 nM and 2100 nM and 4300 nM
- Kd [1]: 4000 nM and 6000 nM and 5000 nM
Substance: Cbx2 chromodomain with the Asp9/Glu33 double substitution (from UniProt Q14781 9-62) (domain or fragment)

- Kd [4]: 3000 nM
- Kd [2]: 5000 nM
Substance: Cbx2.VD chromodomain, Asp9/Glu33 (tags removed) (from UniProt Q14781 9-62) (domain or fragment)

- Kd [1]: 390 nM and 290 nM and 370 nM
Substance: Cbx3 chromodomain with the Asp9/Glu33 double substitution (from UniProt Q13185 29-86) (domain or fragment)

- Kd [2]: 350 nM
Substance: Cbx3.VD chromodomain, Asp9/Glu33 (tags removed) (from UniProt Q13185 29-86) (domain or fragment)

- Kd [1]: 560 nM and 440 nM and 510 nM
Substance: Cbx5 chromodomain with the Asp9/Glu33 double substitution (from UniProt P45973 18-75) (domain or fragment)

- Kd [2]: 500 nM
Substance: Cbx5.VD chromodomain, Asp9/Glu33 (tags removed) (from UniProt P45973 18-75) (domain or fragment)

Substance: Cbx7 chromodomain (from UniProt O95931)
- Kd [5]: 55000 nM

- Kd [6]: 27000 nM
Substance: Cbx7.wt (domain or fragment)

- response (Absorbance at 450 nm) [7]: 0.12
Substance: Cbx7.wt E8D; Q9D; V10I; K33E; P37L; K38E

- response (Absorbance at 450 nm) [8]: 0.55
- response (Absorbance at 450 nm) [7]: 0.08
Substance: Cbx7.wt E8H; Q9D; A12P; K33R; G34D; P37E; K38Q

- response (Absorbance at 450 nm) [8]: 1.9
- response (Absorbance at 450 nm) [7]: 0.11
Substance: Cbx7.wt G7C; E8D; Q9N; F11Y; A12P; P37L; K38E

- response (Absorbance at 450 nm) [8]: 0.52
- response (Absorbance at 450 nm) [7]: 0.09
Substance: Cbx7.wt G7C; E8D; Q9N; K33E; P37Q; K38E

- response (Absorbance at 450 nm) [8]: 0.5
- response (Absorbance at 450 nm) [7]: 0.12
Substance: Cbx7.wt G7C; Q9Y; V10I; A12S; K33E; K38E; S40M

- response (Absorbance at 450 nm) [8]: 0.73
- response (Absorbance at 450 nm) [7]: 0.13
Substance: Cbx7.wt G7F; Q9D; A12P; P37S; K38E

- Kd [1]: 21000 nM and 26000 nM and 16000 nM
Substance: Cbx8 chromodomain with the Asp9/Glu33 double substitution (from UniProt Q9HC52 8-61) (domain or fragment)

- Kd [4]: > 50000 nM
- Kd [2]: 20000 nM
Substance: Cbx8.VD chromodomain, Asp9/Glu33 (tags removed) (from UniProt Q9HC52 8-61) (domain or fragment)

— publication PMC9666628
